Experimental data: the DeepSol protein solubility set

Assay: soluble on expression in E. coli; label from the status in PepcDB or PDB records

| Sequence | soluble on expression in E. coli |
| --- | --- |
| MARRRRAEVRQLQPDLVYGDVLVTAFINKIMRDGKKNLAARIFYDACKIIQEKTGQEPLKVFKQAVENVKPRMEVRSRRVGGANYQVPMEVSPRRQQSLALRWLVQAANQRPERRAAVRIAHELMDAAEGKGGAVKKKEDVERMAEANRAYAHYRW | soluble |
| MAHHHHHHMRGVSAAEIGKFRELQNHWWNPDGPLRTLHFFNPLRVKYINDTCRNFSKRSSLLASSGITPGMRILDVGCGGGILSESLVRLGGNVLGIDMCEESIAVAQQRREQVLQDVASCTLQNGAASLEYRYASLNTIAVEEKQQFDLVVASEVIEHVDDAPRFLQDLCDATKPGGLLIISTMDKSIRAAISHIAVAEYLTALVRPGTHDWSKFVPPKDLSRCALQHQVRQVDLQYIVACPNILMSLSTRQMQLAFSLSKRFDTGHYFWSGLKVTAPA | not soluble |
| MSTSQEISDPAQATSSAQVKWPRYLEATLGFDNHWHPAAFDHELAEGEFVAVTMLGEKVLLTRAKGEVKAIADGCAHRGVPFSKEPLCFKAGTVSCWYHGWTYDLDDGRLVDVLTSPGSPVIGKIGIKVYPVQVAQGVVFVFIGDEEPHALSEDLPPGFLDEDTHLLGIRRTVQSNWRLGVENGFDTTHIFMHRNSPWVSGNRLAFPYGFVPADRDAMQVYDENWPKGVLDRLSENYMPVFEATLDGETVLSAELTGEEKKVAAQVSVWLPGVLKVDPFPDPTLIQYEFYVPISETQHEYFQVLQRKVEGPEDVKTFEVEFEERWRDDALHGFNDDDVWAREAQQEFYGERDGWSKEQLFPPDMCIVKWRTLASERGRGVRAARVEMSHHHHHH | soluble |
| QVQLVQSGAEVKKPGSSVKVSCTSSEVTFSSFAISWVRQAPGQGLEWLGGISPMFGTPNYAQKFQGRVTITADQSTRTAYMDLRSLRSEDTAVYYCARSPSYICSGGTCVFDHWGQGTLVTVSSGGGGSGGGGSGGGGIQPGLTQPPSVSKGLRQTATLTCTGNSNNVGNQGAAWLQQHQGHPPKLLSYRNNDRPSGISERFSASRSGNTASLTITGLQPEDEADYYCSTWDSSLSAVVFGGGTKLTVLGQPKAAPSAAAEQKLISEEDLNGAAHHHHHH | soluble |
| MFSALRHRTAALALGVCFILPVHASSPKPGDFANTQARHIATFFPGRMTGTPAEMLSADYIRQQFQQMGYRSDIRTFNSRYIYTARDNRKNWHNVTGSTVIAAHEGKAPQQIIIMAHLDTYAPQSDADADANLGGLTLQGMDDNAAGLGVMLELAERLKNTPTEYGIRFVATSGEEEGKLGAENLLKRMSDTEKKNTLLVINLDNLIVGDKLYFNSGVKTPEAVRKLTRDRALAIARSHGIAATTNPGLNKNYPKGTGCCNDAEIFDKAGIAVLSVEATNWNLGNKDGYQQRAKTAAFPAGNSWHDVRLDNQQHIDKALPGRIERRCRDVMRIMLPLVKELAKAS | not soluble |
| GMAEEKKKKLSIIVFSGTIDKLMPVGILTSGAAASGYEVNLFFTFWGLQAITKRSLNSQQPPQIDKNYEQMGPIMMQKMQEMKYPMWHQLVQQAKEIGEVKVFACSTTMEFFGIKREDLAEFVDDVVGVATFLDRAEGGTTLFI | soluble |
| MGSDKIHHHHHHMHNEIVTGNVLPFNIFEKADSKLLAWIRDVSVVREITTSCRLIEEGSTPDGLFVVESGAITVCTKQADGGSLSLASLKVGNLVGEMSWLEERPAVASIDAGPGSRLLQIPREALESINQSEAFICHLLYRLIAEKLALQVQGQNIWVHRIAGTDQEPLRKVLVLFAELEEKDVAWIARSGKFKRLVAGDVLLQEGDNVPGLYLLLAGEARISITENGSWQSVGSSRRGELLGELTMLNPQAAGATANVDTVTGLELLVLDKEELSMTLNADPRLAKRFYKGIARMLSQRSRDQLLSRGFAEASRIAEELIDNEQLGLDQLSAISSAGLRFDWLCRQFQDKEG | not soluble |
| MQVNEEGFAIDDKEYAMKTELKFASKHSSRLKIERNVMESYSKCDAQCKEHFSELIDFGQSPVWKWIVMTIVGPSLEELKMKYKPSDIPPSTILQCGLQTMKAIHDFHQIGFLHRDIKPANYCIGYGSKSETIYVLDFGLARKYRLPNGQVRPPRPKTKMIGTPRYCSRASHRCEELGRRDDYESWFFMFIDLVDTTLIDWKGLTRPDAYAKKQELFTKLKTYEKHPMFKVISIYLDNLVYDSEVKFGVLREAITDYARGCKLTLKEPLVWFNQSTCPSPSTAPGTGASRMATNIDLKSIASDRNEENSLDRSKTGTLSFNNSKNKKPSRY | not soluble |
